Data as given in IntAct's records for PubMed 14769790.

B1: Thioredoxin M-type, chloroplastic (Spinacia oleracea (Spinach)), P07591 (parent)
chain: MAIENCLQLSTSASVGTVAVKSHVHHLQPSSKVNVPTFRGLKRSFPALSSSVSSSSPRQFRYSSVVCKASEAVKEVQDVNDSSWKEFVLESEVPVMVDFWAPWCGPCKLIAPVIDELAKEYSGKIAVYKLNTDEAPGIATQYNIRSIPTVLFFKNGERKESIIGAVPKSTLTDSIEKYLSP
partner: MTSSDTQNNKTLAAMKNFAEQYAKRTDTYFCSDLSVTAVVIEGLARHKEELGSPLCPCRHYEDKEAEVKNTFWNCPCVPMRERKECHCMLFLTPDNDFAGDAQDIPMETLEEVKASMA
B2: Ferredoxin-thioredoxin reductase, catalytic chain (Synechocystis sp. (strain PCC 6803 / Kazusa)), Q55389 (parent)
chain: B1 partner
partner: B1 chain
B3: Ferredoxin-thioredoxin reductase, catalytic chain (Synechocystis sp. (strain PCC 6803 / Kazusa)), Q55389 (parent)
chain: B1 partner
partner: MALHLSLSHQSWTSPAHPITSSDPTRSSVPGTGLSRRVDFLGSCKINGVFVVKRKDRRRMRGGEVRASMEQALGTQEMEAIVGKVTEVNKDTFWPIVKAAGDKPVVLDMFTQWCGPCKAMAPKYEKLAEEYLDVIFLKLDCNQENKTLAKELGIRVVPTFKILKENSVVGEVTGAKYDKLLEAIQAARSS

Variants of: B1
Settings: with ftrc_syny3 ftrC, Q55389

effect of a mutation on the interaction | Variant
increasing interaction | MAIENCLQLSTSASVGTVAVKSHVHHLQPSSKVNVPTFRGLKRSFPALSSSVSSSSPRQFRYSSVVCKASEAVKEVQDVNDSSWKEFVLESEVPVMVDFWAPWCGPSKLIAPVIDELAKEYSGKIAVYKLNTDEAPGIATQYNIRSIPTVLFFKNGERKESIIGAVPKSTLTDSIEKYLSP [C107S]

Variants of: B2
Settings: with trxm_spiol trxm, P07591

effect of a mutation on the interaction | Variant
decreasing interaction | MTSSDTQNNKTLAAMKNFAEQYAKRTDTYFCSDLSVTAVVIEGLARHKEELGSPLCPCRHYEDKEAEVKNTFWNCPCVPMRERKECYCMLFLTPDNDFAGDAQDIPMETLEEVKASMA [H87Y]

Variants of: B3
Settings: with trxf_spiol trxf

effect of a mutation on the interaction | Variant
increasing interaction | MTSSDTQNNKTLAAMKNFAEQYAKRTDTYFCSDLSVTAVVIEGLARHKEELGSPLCPSRHYEDKEAEVKNTFWNCPCVPMRERKECHCMLFLTPDNDFAGDAQDIPMETLEEVKASMA [C58S]
